No end group written: not given here.
Key:
[1] = target: PSA (Homo sapiens, UniProt P07288); settings: cited from earlier work; for Kcat / Km: aminomethyl coumarin labeled peptides, 50 mM Tris, 0.1 M NaCl, pH 7.8
[2] = test system: human LNCaP prostate cancer xenografts which produce PSA; test: Intratumoral injection into PSA-producing LNCaP xenografts; type: in vivo; settings: nude mice
Procedure: The percent of tumor within sample was determined by calculating the ratio of viable tumor to total tumor area following image analysis of thin tumor sections.

[3] = test system: mice; test: In vivo toxicity after single intravenous injection
Procedure: To determine in vivo toxicity, proaerolysin variants were administered to mice intravenously.

[4] = test system: E14 mouse T-cell lymphoma cells (ATCC TIB-39); test: In vitro toxicity, MTS/PMS cell viability assay; type: cell-based; settings: 4 hours at 37° C., 1×10^−13 M-1×10^−7M toxin, FIG. 3; read-out: LC50 (the source's name)
Procedure: To determine in vitro toxicity, a cell viability assay was performed as follows. E14 mouse T-cell lymphoma cells (ATCC TIB-39) were cultured at 10^+5 cells per well in MTS/PMS Cell Titer 96 (Promega). […] Cell viability was subsequently determined by reading the plate on a plate reader, as directed by the manufacturer of the MTS/PMS kit.

Chain of PSA (P07288 25-261): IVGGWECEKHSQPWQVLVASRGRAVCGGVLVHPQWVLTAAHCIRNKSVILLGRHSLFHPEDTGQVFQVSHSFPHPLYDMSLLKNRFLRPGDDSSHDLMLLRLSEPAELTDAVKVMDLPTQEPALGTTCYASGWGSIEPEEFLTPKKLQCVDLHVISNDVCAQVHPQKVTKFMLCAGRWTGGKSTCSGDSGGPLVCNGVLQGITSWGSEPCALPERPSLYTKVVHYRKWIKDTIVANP

| Substance | Kcat [1] [s⁻¹] | Km [1] [µM] | efficiency and specificity of hydrolysis by PSA [1] | antitumor effect against LNCaP xenografts [2] | lethality after dose of 1 μg ([3]; intravenous, 1 μg) | LD100 at 24 hours (dose that kills 100% of animals within 24 hours) ([3]; single IV injection, total dose) [µg] | CC50 [4] [nM] |
| --- | --- | --- | --- | --- | --- | --- | --- |
| ATKSKQH (also: fluorescently labeled (aminomethyl coumarin); listed as Homo sapiens) [ATKSKQH (17), PSA substrate peptide] | 0.0091 | 1310 | not efficient, but were specifically hydrolyzed by PSA | – | – | – | – |
| EHSSKLQ (also: fluorescently labeled (aminomethyl coumarin); listed as Homo sapiens) [EHSSKLQ (20), PSA substrate peptide] | 0.012 | 1160 | – | – | – | – | – |
| HSSKLQ (listed as Homo Sapiens) [HSSKLQ (5), PSA substrate peptide] | 0.011 | 470 | – | – | – | – | – |
| KGISSQY (also: fluorescently labeled (aminomethyl coumarin); listed as Homo sapiens) [KGISSQY (15), PSA substrate peptide] | 0.043 | 160 | efficiently but not specifically hydrolyzed by PSA | – | – | – | – |
| KGLSSQC (also: fluorescently labeled (aminomethyl coumarin); listed as Homo sapiens) [KGLSSQC (18), PSA substrate peptide] | 0.0017 | 300 | – | – | – | – | – |
| LGGSSQL (also: fluorescently labeled (aminomethyl coumarin); listed as Homo sapiens) [LGGSSQL (19), PSA substrate peptide] | 0.0037 | 900 | not efficient, but were specifically hydrolyzed by PSA | – | – | – | – |
| SKLQ (also: fluorescently labeled (aminomethyl coumarin); listed as Homo sapiens) [SKLQ (21), PSA substrate peptide] | 0.020 | 813 | – | – | – | – | – |
| SRKSQQY (also: fluorescently labeled (aminomethyl coumarin); listed as Homo sapiens) [SRKSQQY (16), PSA substrate peptide] | 0.023 | 90 | efficiently but not specifically hydrolyzed by PSA | – | – | – | – |
| Wild-type proaerolysin | – | – | – | minimal effect | caused death within one hour | 0.1 | 0.15 |

— patent US7838266B2, “Proaerolysin containing protease activation sequences and methods of use for treatment of prostate cancer” (University of Victoria Innovation and Development …, priority 2001, dated 2010)
